Experimental data reported in PMC4027167, “The histone chaperones Vps75 and Nap1 form ring-like, tetrameric structures in solution” (Nucleic Acids Research, 2014).
Residue numbers refer to the chain shown, from its start. Numbers in names are those of the source.

Tests used:
[1] = target: Nucleosome Assembly Protein 1 (Nap1) (budding yeast) (UniProt P25293); assay: SEC-MALS; 150 mM NaCl, 20 mM HEPES-KOH pH 7.5; MAbPac SEC-1 column (Figure 1) or Superdex S200 10/300 (Figures 5 and 7)
[2] = target: Nucleosome Assembly Protein 1 (Nap1) (budding yeast) (UniProt P25293); assay: SEC-MALS; 500 mM NaCl, 20 mM HEPES-KOH pH 7.5; MAbPac SEC-1 column (Figure 1) or Superdex S200 10/300 (Figure 7)
[3] = target: Nap1 L120C dimers labelled with Maleimide-PEG2-Biotin (budding yeast) (UniProt P25293); assay: BLI; biotinylated chaperone dimers on streptavidin biosensors, unlabelled wild-type chaperone in solution; 150 mM NaCl, 20 mM HEPES.KOH pH 7.5, 0.1% BSA; steady state, one site saturation fit; two dimers to tetramer
[4] = target: Vps75, full-length (budding yeast) (UniProt P53853); assay: SEC-MALS; 150 mM NaCl, 20 mM HEPES-KOH pH 7.5; MAbPac SEC-1 column (Figure 1) or Superdex S200 10/300 (Figures 5 and 7)
[5] = target: Vps75, full-length (budding yeast) (UniProt P53853); assay: SEC-MALS; 500 mM NaCl, 20 mM HEPES-KOH pH 7.5; MAbPac SEC-1 column (Figure 1) or Superdex S200 10/300 (Figure 7)
[6] = target: Vps75, full-length (budding yeast) (UniProt P53853); assay: SAXS; 500 mM NaCl, 0.5 to 10 mg/ml, 10°C
[7] = target: Vps75 Y35C dimers labelled with Maleimide-PEG2-Biotin (budding yeast) (UniProt P53853); assay: BLI; biotinylated chaperone dimers on streptavidin biosensors, unlabelled wild-type chaperone in solution; 150 mM NaCl, 20 mM HEPES.KOH pH 7.5, 0.1% BSA; steady state, one site saturation fit; two dimers to tetramer
[8] = target: Vps75, full-length (budding yeast) (UniProt P53853); assay: SAXS; 150 mM NaCl, 0.5 to 10 mg/ml, 10°C
[9] = target: Vps75 lacking the unstructured C-terminal domain (residues 1–223) (budding yeast) (UniProt P53853); assay: SEC-MALS; 150 mM NaCl, 20 mM HEPES-KOH pH 7.5; MAbPac SEC-1 column (Figure 1) or Superdex S200 10/300 (Figures 5 and 7)
[10] = target: Vps75 lacking the unstructured C-terminal domain (residues 1–223) (budding yeast) (UniProt P53853); assay: SEC-MALS; 500 mM NaCl, 20 mM HEPES-KOH pH 7.5; MAbPac SEC-1 column (Figure 1) or Superdex S200 10/300 (Figure 7)
[11] = target: Vps75 lacking the unstructured C-terminal domain (residues 1–223) (budding yeast) (UniProt P53853); assay: SAXS; 500 mM NaCl, 0.5 to 10 mg/ml, 10°C
[12] = target: the molecule itself; assay: PELDOR; spin-labelled protein, 100–150 μM dimer, 150 mM NaCl, 20 mM HEPES-KOH pH 7.5 in deuterium oxide, mixed 1:1 with D8-glycerol; tetrameric conditions
[13] = target: the molecule itself; assay: SEC-MALS; 150 mM NaCl, 20 mM HEPES-KOH pH 7.5; MAbPac SEC-1 column (Figure 1) or Superdex S200 10/300 (Figures 5 and 7)
[14] = target: the molecule itself; assay: SEC-MALS; run at 500 mM NaCl after disulphide cross-linking via K78C at 150 mM NaCl
[15] = target: T1, Rtt109 (UniProt Q07794 1-436); assay: PELDOR; 100 μM Vps75 Y35RX2 dimer with Rtt109 at ratios 2:0, 2:0.25, 2:0.5 and 2:1 (Vps75:Rtt109); details: both partners purified
T1 construct: expressed from a pET28a-derived vector, a gift from Paul Kaufman; also called histone acetyltransferase Rtt109
T1 sequence: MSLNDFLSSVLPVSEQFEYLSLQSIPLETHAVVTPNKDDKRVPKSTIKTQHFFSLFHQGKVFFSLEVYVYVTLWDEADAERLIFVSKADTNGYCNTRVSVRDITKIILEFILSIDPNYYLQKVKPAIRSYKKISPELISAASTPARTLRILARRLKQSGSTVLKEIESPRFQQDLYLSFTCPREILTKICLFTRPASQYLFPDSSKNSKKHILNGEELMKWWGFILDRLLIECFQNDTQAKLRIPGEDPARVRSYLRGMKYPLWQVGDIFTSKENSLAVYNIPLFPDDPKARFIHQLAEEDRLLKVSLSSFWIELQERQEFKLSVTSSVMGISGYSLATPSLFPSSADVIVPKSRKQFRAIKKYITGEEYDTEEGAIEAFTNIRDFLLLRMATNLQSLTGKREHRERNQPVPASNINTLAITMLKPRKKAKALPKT

[16] = target: the molecule itself; assay: as above
[17] = target: the molecule itself; assay: PELDOR; spin-labelled protein, 100–150 μM dimer, 500 mM NaCl, 20 mM HEPES-KOH pH 7.5 in deuterium oxide, mixed 1:1 with D8-glycerol; dimeric conditions

## Nucleosome Assembly Protein 1 (Nap1) (from UniProt P25293 1-417) (natural protein)
[1]
  stoichiometry N: 4
[2]
  stoichiometry N: 2
[3]
  Kd: 3570 nM

## Vps75, full-length (from UniProt P53853 1-264) (natural protein)
[4]
  stoichiometry N: 4
[5]
  stoichiometry N: 2
[6]
  stoichiometry N: 2
[7]
  Kd: 600 nM
[8]
  stoichiometry N: 4

## Vps75 lacking the unstructured C-terminal domain (residues 1–223) (from UniProt P53853 1-223) (domain or fragment)
[9]
  stoichiometry N: 4
[10]
  stoichiometry N: 2
[11]
  stoichiometry N: 2

B1: Vps75 K117R1 (natural protein, budding yeast, UniProt P53853 1-264, looked up)
chain: MMSDQENENEHAKAFLGLAKAEEEVDAIEREVELYRLNKMKPVYEKRDAYIDEIAEFWKIVLSQHVSFANYIRASDFKYIDTIDKIKVEWLALESEMYDTRDFSITFHFHGIEGDFCEQQVTKVFQIKKGKDDQEDGILTSEPVPIEWPQSYDSINPDLIKDKRSPEGKKKYRQGMKTIFGWFRWTGLKPGKEFPHGDSLASLFSEEIYPFAVKYYAEAQRDLEDEEGESGLSADGDSEDDDGSLGEVDLPLSDEEPSSKKRKV
modifications: MTSL spin label (R1) on cysteine 117; deuterated protein
notes: Vps75 of budding yeast, open reading frame, unique cysteine at position 117; also called Vps75 K117C; not shown: His6, N-terminal, cleaved
[12]
  stoichiometry N: 4

B2: Vps75 R164D (natural protein, budding yeast, UniProt P53853 1-264, looked up)
chain: B1 chain with C117K, R164D
notes: Vps75 of budding yeast, point mutant in the C21A/C212A construct
[13]
  stoichiometry N: ~2

B3: Vps75 K169E (natural protein, budding yeast, UniProt P53853 1-264, looked up)
chain: B1 chain with C117K, K169E
notes: as for B2
[13]
  stoichiometry N: ~2

B4: Vps75 K170E (natural protein, budding yeast, UniProt P53853 1-264, looked up)
chain: B1 chain with C117K, K170E
notes: as for B2
[13]
  stoichiometry N: ~2

B5: Vps75 triple mutant protein (R164D, K169E, K170E) (natural protein, budding yeast, UniProt P53853 1-264, looked up)
chain: B1 chain with C117K, R164D, K169E, K170E
notes: Vps75 of budding yeast, mutant in the C21A/C212A construct
[13]
  stoichiometry N: 2

B6: Vps75 K78C (natural protein, budding yeast, UniProt P53853 1-264, looked up)
chain: B1 chain with K78C, C117K
modifications: disulphide between cysteine 78 of opposing dimers after oxidation with Cu (II) phenanthroline
notes: as for B2
[14]
  stoichiometry N: 4

B7: Vps75 Y35RX2 (natural protein, budding yeast, UniProt P53853 1-264, looked up)
chain: B1 chain with Y35C, C117K
modifications: 3,4-Bis-MTSL crosslinking spin label (RX2) joining cysteine 35 of the two chains of the dimer; deuterated protein
notes: Vps75 of budding yeast, open reading frame, unique cysteine at position 35; One spin label for each dimer; also called singly labelled Vps75 Y35RX2 dimer; not shown: His6, N-terminal, cleaved
[15]
  binding result: binds
[16]
  binding result: binds

B8: Nap1 PPP mutant (R301P, T302P, K305P) (natural protein)
chain: MSDPIRTKPKSSMQIDNAPTPHNTPASVLNPSYLKNGNPVRAQAQEQDDKIGTINEEDILANQPLLLQSIQDRLGSLVGQDSGYVGGLPKNVKEKLLSLKTLQSELFEVEKEFQVEMFELENKFLQKYKPIWEQRSRIISGQEQPKPEQIAKGQEIVESLNETELLVDEEEKAQNDSEEEQVKGIPSFWLTALENLPIVADTITDRDAEVLEYLQDIGLEYLTDGRPGFKLLFRFDSSANPFFTNDILAKTYFYQKELGYSGDFIYDHAEGAEISWKDNAHNVTVDLEMRKQRNKTTKQVPPIEPITPIESFFNFFDPPKIQNEDQDEELEEDLEERLALDYSIGEQLKDKLIPRAVDWFTGAALEFEFEEDEEEADEDEDEEEDDDHGLEDDDGESAEEQDDFAGRPEQAPEAKQS
[13]
  stoichiometry N: ~2

B9: Nap1 E209R1 (natural protein, budding yeast, UniProt P25293 1-417, looked up)
chain: B8 chain with E209C, P301R, P302T, P305K
modifications: MTSL spin label (R1) on cysteine 209; deuterated protein
notes: Nap1 of budding yeast, open reading frame, unique cysteine at position 209; also called Nap1 E209C; not shown: His6, N-terminal, cleaved
[17]
  stoichiometry N: 2
[12]
  stoichiometry N: 4

B10: Nap1 T251R1 (natural protein, budding yeast, UniProt P25293 1-417, looked up)
chain: B8 chain with T251C, P301R, P302T, P305K
modifications: MTSL spin label (R1) on cysteine 251; deuterated protein
notes: Nap1 of budding yeast, open reading frame, unique cysteine at position 251; also called Nap1 T251C; not shown: His6, N-terminal, cleaved
[17]
  stoichiometry N: 2
[12]
  stoichiometry N: 4

B11: Nap1 T307R1 (natural protein, budding yeast, UniProt P25293 1-417, looked up)
chain: B8 chain with P301R, P302T, P305K, T307C
modifications: MTSL spin label (R1) on cysteine 307; deuterated protein
notes: Nap1 of budding yeast, open reading frame, unique cysteine at position 307; also called Nap1 T307C; not shown: His6, N-terminal, cleaved
[17]
  stoichiometry N: 2
[12]
  stoichiometry N: 4

B12: Vps75 E56R1 (natural protein, budding yeast, UniProt P53853 1-264, looked up)
chain: B1 chain with E56C, C117K
modifications: MTSL spin label (R1) on cysteine 56; deuterated protein
notes: Vps75 of budding yeast, open reading frame, unique cysteine at position 56; also called Vps75 E56C; not shown: His6, N-terminal, cleaved
[12]
  stoichiometry N: 4
